Measurements published in patent US20220023395A1.

Key:
[1] = biological target: IL-2 receptor (CD25) on HUT-102 and MT-2 cells (human) (UniProt P01589); assay: cell-based or functional assay
[2] = biological target: T1, CD124 (IL4-receptor) on 4T1 triple-negative breast cancer cells (mouse) (UniProt P16382); assay: cell-based or functional assay
T1 sequence: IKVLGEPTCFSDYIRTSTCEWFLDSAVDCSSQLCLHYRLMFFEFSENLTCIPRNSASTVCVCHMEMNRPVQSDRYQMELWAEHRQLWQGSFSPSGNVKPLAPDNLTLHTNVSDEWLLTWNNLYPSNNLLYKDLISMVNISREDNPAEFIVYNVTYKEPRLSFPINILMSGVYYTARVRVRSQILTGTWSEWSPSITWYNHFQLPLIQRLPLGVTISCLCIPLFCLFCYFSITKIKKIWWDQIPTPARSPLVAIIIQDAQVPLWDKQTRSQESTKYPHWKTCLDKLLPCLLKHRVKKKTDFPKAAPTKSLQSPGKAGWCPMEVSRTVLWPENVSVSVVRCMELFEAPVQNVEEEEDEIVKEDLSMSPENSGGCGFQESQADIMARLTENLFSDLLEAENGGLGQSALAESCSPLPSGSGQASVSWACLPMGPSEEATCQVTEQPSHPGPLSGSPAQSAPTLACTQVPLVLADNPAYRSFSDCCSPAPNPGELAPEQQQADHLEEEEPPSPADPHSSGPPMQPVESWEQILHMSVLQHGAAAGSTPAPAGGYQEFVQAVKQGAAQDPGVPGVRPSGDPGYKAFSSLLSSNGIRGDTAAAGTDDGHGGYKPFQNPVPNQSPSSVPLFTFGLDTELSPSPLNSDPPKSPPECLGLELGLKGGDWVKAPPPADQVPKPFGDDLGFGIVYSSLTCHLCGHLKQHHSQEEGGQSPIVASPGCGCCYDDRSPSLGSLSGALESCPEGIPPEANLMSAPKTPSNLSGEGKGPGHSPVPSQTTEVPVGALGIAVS

Sequence of UniProt P01589 (P01589 22-272): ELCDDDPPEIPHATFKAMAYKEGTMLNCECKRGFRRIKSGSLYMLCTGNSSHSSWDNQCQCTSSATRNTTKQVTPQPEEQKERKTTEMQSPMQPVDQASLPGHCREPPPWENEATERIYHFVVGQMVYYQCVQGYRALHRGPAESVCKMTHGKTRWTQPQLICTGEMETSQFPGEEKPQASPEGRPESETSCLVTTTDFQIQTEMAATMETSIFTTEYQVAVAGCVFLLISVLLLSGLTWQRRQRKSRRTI

## C. diphtheriae-derived s-Ontak-His6 (SEQ ID NO: 58)
[1]
  MT-2 cell IC50 (earlier disclosed data): 0.12 pM

## E. coli-derived classic Ontak (denileukin diftitox, SEQ ID NO: 10)
[1]
  IC50 against HUT-102 T cell lymphoma cells (in vitro cell killing): 1.8 pM

## s-DAB1-389-mIL4-His6 (SEQ ID NO: 134)
[2]
  IC50 for killing 4T1 cells (Trypan blue viability): 10 pM
  IC50 of 4T1 cell migration inhibition (clonogenic assay, Giemsa staining): 800 pM
